Assay in all cases: SPR, antibody captured, C2 as analyte;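 further: biacore at 37 °C, anti-C2 mAbs held by immobilised goat anti-human IgG, C2 alanine or serine mutants injected, double-referenced sensorgrams fitted to a 1:1 kinetic or steady-state model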
The target of one assay is T1, human C2 L453A (human, UniProt P06681 21-752).
T1 sequence: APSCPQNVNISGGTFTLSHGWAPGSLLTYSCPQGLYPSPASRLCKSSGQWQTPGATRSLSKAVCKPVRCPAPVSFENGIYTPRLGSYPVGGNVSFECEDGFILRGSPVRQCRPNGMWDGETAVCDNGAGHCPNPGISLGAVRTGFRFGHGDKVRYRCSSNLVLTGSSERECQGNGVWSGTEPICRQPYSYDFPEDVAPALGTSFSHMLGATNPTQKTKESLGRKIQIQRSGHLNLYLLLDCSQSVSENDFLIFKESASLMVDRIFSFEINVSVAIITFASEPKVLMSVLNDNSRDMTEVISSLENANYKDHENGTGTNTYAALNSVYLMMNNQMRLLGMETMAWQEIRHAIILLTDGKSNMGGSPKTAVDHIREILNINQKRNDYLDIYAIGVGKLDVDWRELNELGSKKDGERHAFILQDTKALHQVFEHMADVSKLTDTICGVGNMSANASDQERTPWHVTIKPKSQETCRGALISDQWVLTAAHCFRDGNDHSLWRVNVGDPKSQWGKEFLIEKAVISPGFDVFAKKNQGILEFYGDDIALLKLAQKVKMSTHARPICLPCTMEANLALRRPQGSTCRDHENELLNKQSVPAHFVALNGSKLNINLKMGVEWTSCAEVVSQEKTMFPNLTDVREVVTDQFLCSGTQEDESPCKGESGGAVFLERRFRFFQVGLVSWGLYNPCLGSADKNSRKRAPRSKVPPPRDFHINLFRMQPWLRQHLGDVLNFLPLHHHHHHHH

The target in the next assay is T2, human C2 K457A (human, UniProt P06681 21-752).
T2 sequence: T1 sequence with A433L, K437A

The next assay addresses T3, human C2 S469A (human, UniProt P06681 21-752).
T3 sequence: T1 sequence with A433L, S449A

Another assay addresses T4, human C2 E476A (human, UniProt P06681 21-752).
T4 sequence: T1 sequence with A433L, E456A

Positions count from the first letter of the chain named.

B1: RF16-242 (antibody, human IgG4 S228P, lambda, V domains shown)
VH: EVQLLQSGAEVKKPGESLKISCKGSGYSFTSYWIGWVRQMPGKGLEWMGIIYPGDSDTRYSPSFQGQVTISADKSISTAYLQWSSLKASDTAMYYCARRGHYGDYFDYWGQGTLVTVSS
VL: SYELTQPPSVSVSPGQTARITCSGDALPKKYAYWYHQKSGQAPVLVIYEDRRRPSEIPERFSGSSSGTMATLTITGAQVEDEGVYFCYSRDRAGNQRVFGGGTQLTVLG
notes: pH-dependent anti-C2 antibody from a phage display library
Regarding B1, the equilibrium dissociation constant (Kd) in the assay with human C2 L453A came out at 6.8 nM; with human C2 K457A it was 233 nM; in the assay with human C2 S469A, 21.4 nM; in the assay with human C2 E476A, 14 nM.

For orientation: Kd means the concentration at which binding is half-saturated.
